Assay results published in paper PMC4535689.

T1: human NGL-2 extracellular fragment (LRR and Ig domains) (human)
T1 sequence (Q9HBW1 whole entry, looked up): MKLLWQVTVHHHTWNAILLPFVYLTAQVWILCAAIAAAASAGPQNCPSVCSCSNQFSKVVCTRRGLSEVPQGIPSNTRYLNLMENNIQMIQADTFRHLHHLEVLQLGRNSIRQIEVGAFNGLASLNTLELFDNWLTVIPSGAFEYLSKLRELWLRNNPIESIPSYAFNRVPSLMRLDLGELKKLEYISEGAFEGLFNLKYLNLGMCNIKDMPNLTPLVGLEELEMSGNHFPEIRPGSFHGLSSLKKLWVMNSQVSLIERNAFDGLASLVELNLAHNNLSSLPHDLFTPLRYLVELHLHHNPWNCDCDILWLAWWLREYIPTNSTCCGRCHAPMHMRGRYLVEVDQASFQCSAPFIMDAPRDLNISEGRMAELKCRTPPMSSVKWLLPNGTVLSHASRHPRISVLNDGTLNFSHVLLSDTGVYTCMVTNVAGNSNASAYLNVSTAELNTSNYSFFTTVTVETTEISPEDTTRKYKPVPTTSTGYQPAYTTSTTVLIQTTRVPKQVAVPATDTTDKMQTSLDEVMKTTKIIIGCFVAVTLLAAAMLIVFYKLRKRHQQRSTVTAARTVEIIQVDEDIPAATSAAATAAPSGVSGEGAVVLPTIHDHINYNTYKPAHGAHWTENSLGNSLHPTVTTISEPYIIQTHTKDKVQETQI


What was measured:
[1] = biological target: mouse NGL-1 extracellular fragment (LRR and Ig domains) (mouse); test: AUC
[2] = biological target: T1, human NGL-2 extracellular fragment (LRR and Ig domains) (human); test: AUC

| Kd [1] [nM] | stoichiometry N [1] | Kd [2] [nM] | stoichiometry N [2] | Molecule |
| --- | --- | --- | --- | --- |
| 1490 | – | – | – | mouse netrin G1 isoform G1j (LN domain only) (natural protein) |
| 505 | 1 | – | – | mouse netrin G1 isoform G1f (LN and LE1 domains) (natural protein) |
| – | – | 180 | – | human sNetrin G2 ("short" netrin G2, LN and LE1 domains only) (domain or fragment, N-linked glycans at Asn105 and Asn111 (seen in the crystal structure)) DYDICKSWVTTDEGPTWEFYACQPKVMRLKDYVKVKVEPSGITCGDPPERFCSHENPYLCSNECDASNPDLAHPPRLMFDKEEEGLATYWQSITWSRYPSPLEANITLSWNKTVELTDDVVMTFEYGRPTVMVLEKSLDNGRTWQPYQFYAEDCMEAFGMSARRARDMSSSSAHRVLCTEEYSRWAGSKKEKHVRFEVRDRFAIFAGPDLRNMDNLYTRLESAKGLKEFFTLTDLRMRLLRPALGGTYVQRENLYKYFYAISNIEVIGRCKCNLHANLCSMREGSLQCECEHNTTGPDCGKCKKNFRTRSWRAGSYLPLPHGSPNACATAGS |
| – | – | 264 | 1 | human netrin G2, full ectodomain (LN domain, LE1-3 and C'), lacking only the GPI anchor site (domain or fragment) DYDICKSWVTTDEGPTWEFYACQPKVMRLKDYVKVKVEPSGITCGDPPERFCSHENPYLCSNECDASNPDLAHPPRLMFDKEEEGLATYWQSITWSRYPSPLEANITLSWNKTVELTDDVVMTFEYGRPTVMVLEKSLDNGRTWQPYQFYAEDCMEAFGMSARRARDMSSSSAHRVLCTEEYSRWAGSKKEKHVRFEVRDRFAIFAGPDLRNMDNLYTRLESAKGLKEFFTLTDLRMRLLRPALGGTYVQRENLYKYFYAISNIEVIGRCKCNLHANLCSMREGSLQCECEHNTTGPDCGKCKKNFRTRSWRAGSYLPLPHGSPNACATAGSFGNCECYGHSNRCSYIDFLNVVTCVSCKHNTRGQHCQHCRLGYYRNGSAELDDENVCIECNCNQIGSVHDRCNETGFCECREGAAGPKCDDCLPTHYWRQGCYPNVCDDDQLLCQNGGTCLQNQRCACPRGYTGVRCEQPRCDPADDDGGLDCDR |
